Columns and labels:
Assay in all cases: EMSA
Δ70-POT1aC;TPP1 [1] = target: T1, Δ70-POT1aC;TPP1 (mouse? (POT1a part); RPA70 organism not …, UniProt Q8VEE4;Q5EE38 191-623+Q91WC1:149-640;1-416, internal_change|)
POT1a;TPP1 [2] = target: T2, POT1a;TPP1 (mouse;mouse?, UniProt Q91WC1;Q5EE38 1-640;1-416, |)
T2 sequence 1: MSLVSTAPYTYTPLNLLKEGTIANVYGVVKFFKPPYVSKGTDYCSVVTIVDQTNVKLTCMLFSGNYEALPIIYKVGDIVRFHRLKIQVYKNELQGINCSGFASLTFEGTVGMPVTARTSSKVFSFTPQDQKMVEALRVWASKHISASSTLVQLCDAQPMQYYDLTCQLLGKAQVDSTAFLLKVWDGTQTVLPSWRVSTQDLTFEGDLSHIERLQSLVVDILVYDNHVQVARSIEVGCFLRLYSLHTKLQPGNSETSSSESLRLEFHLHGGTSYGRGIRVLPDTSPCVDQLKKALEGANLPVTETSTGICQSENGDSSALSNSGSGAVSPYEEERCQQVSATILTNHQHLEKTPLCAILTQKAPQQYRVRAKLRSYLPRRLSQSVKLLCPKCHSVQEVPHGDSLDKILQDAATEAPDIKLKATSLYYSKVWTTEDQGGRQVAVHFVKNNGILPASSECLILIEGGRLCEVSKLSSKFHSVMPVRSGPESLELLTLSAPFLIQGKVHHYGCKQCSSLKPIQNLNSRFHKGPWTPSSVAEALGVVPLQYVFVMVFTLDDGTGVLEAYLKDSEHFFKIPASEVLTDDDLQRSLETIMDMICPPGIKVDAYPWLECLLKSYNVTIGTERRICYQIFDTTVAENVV
T2 sequence 2: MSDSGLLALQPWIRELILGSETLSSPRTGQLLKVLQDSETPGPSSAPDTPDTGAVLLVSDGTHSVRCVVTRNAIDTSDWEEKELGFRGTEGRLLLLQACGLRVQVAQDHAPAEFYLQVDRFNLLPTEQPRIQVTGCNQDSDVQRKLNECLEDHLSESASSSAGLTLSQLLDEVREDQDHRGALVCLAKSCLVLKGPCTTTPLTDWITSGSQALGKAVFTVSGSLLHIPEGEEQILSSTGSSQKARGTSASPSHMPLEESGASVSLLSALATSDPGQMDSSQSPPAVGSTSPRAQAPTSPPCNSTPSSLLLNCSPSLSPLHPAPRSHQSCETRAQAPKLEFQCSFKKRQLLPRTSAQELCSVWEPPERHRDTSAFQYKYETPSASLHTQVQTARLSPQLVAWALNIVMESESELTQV

Δ70-POT1aC;TPP1 [3] = target: T1, Δ70-POT1aC;TPP1; remark: listed apart in the source
POT1a;TPP1 [4] = target: T2, POT1a;TPP1; remark: listed apart in the source

Q: Does ATGCGACTCGAGCTAGATGATGTCTTCTGCAATCA (ssDNA) [Scr35] bind (Δ70-POT1aC;TPP1 [1])?
A: Result: binds

Q: Does ATGCGACTCGAGCTAGATGATGTCTTCTGCAATCA (ssDNA) [Scr35] bind (POT1a;TPP1 [2])?
A: Result: no binding

Q: Which Kd (Δ70-POT1aC;TPP1 [3]) does the source give for TTAGGGTTAGGGTTAGGGTTAGGGTTAGGGTTAG (ssDNA) [Telo34] here?
A: Its Kd is roughly 500 pM.

Q: What about the Kd (POT1a;TPP1 [4]) of the same binder?
A: Its Kd is roughly 500 pM.

Source: doi:10.1101/354985
